Measured values published in paper doi:10.1101/2025.05.23.649291 (bioRxiv, 2025).
Like-named read-outs stand apart in the source and are kept apart here. One block for each binder: values may come before it.

Legend:
[1] = target: T1, rhesus monkey TfR1 fused to EGFP, on CHO-rhTfR1-EGFP cells (Macaca mulatta, UniProt H9Z2T8); experiment: flow cytometry on cells
[2] = target: T2, human TfR1 fused to EGFP, on CHO-hTfR1-EGFP cells (human, UniProt P02786); experiment: immunostaining of cells or tissue
[3] = target: T3, mouse TfR1 fused to EGFP, on CHO-mTfR1-EGFP cells (Mus musculus, UniProt Q62351); experiment: immunostaining of cells or tissue
[4] = target: mFc-mouse TfR1 ectodomain (mouse IgG2a Fc fusion) (Mus musculus, UniProt Q62351); experiment: SPR
[5] = target: T2, human TfR1 fused to EGFP, on …; experiment: flow cytometry on cells
[6] = target: T1, rhesus monkey TfR1 fused to EGFP, on …; experiment: immunostaining of cells or tissue
[7] = target: mFc-human TfR1 ectodomain (mouse IgG2a Fc fusion) (Homo sapiens, UniProt P02786); experiment: SPR
[8] = target: mouse NTSR1 fused to GFP, on Expi293 cells (mouse, UniProt O88319); experiment: flow cytometry on cells
[9] = target: mFc-rhesus monkey TfR1 ectodomain (mouse IgG2a Fc fusion) (Macaca mulatta, UniProt H9Z2T8); experiment: SPR
[10] = target: T3, mouse TfR1 fused to EGFP, on …; experiment: immunostaining of cells or tissue; remark: listed apart in the source
[11] = target: T1, rhesus monkey TfR1 fused to EGFP, on …; experiment: immunostaining of cells or tissue; remark: listed apart in the source

Sequence of mFc-mouse TfR1 ectodomain (mouse IgG2a Fc fusion) (Q62351 89-763): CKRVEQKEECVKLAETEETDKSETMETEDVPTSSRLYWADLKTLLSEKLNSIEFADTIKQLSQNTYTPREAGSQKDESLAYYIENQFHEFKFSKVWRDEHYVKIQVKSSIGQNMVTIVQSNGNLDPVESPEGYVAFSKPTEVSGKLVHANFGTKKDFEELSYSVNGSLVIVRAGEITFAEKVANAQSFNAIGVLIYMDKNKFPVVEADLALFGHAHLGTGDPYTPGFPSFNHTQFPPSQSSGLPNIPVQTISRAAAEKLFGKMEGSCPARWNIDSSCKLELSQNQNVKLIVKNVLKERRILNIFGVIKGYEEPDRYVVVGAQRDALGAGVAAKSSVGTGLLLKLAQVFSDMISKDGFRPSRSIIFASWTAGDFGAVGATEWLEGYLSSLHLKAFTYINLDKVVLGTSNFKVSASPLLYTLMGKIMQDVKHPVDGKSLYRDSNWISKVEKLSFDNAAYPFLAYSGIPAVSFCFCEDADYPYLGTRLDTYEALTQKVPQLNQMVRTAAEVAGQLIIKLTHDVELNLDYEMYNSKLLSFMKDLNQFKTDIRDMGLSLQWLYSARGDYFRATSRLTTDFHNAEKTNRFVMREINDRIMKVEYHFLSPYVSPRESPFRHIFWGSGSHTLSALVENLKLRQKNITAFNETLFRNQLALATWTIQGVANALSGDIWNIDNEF
T3 sequence (Q62351 whole entry, the tested form may be a part): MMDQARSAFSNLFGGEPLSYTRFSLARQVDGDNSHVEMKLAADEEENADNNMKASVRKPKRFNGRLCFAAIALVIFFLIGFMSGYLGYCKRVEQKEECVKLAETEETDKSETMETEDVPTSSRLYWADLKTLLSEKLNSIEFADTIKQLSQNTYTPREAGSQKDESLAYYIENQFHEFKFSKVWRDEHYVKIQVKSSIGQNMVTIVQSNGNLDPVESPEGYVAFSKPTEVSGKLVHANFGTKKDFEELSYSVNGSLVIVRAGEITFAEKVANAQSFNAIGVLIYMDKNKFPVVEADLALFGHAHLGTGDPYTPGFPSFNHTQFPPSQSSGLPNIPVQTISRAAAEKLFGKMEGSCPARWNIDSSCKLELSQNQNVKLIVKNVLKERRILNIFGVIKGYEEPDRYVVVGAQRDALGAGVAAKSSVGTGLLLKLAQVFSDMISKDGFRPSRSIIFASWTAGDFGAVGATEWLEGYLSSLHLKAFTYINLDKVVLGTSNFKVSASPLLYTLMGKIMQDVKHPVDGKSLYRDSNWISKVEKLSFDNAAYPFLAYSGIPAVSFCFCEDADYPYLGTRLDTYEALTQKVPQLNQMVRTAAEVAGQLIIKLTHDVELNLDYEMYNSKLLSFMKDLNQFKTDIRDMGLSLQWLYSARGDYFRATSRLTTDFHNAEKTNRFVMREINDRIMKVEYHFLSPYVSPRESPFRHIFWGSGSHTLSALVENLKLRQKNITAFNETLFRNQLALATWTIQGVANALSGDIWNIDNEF
Sequence of mouse NTSR1 fused to GFP, on Expi293 cells (O88319 whole entry, the tested form may be a part): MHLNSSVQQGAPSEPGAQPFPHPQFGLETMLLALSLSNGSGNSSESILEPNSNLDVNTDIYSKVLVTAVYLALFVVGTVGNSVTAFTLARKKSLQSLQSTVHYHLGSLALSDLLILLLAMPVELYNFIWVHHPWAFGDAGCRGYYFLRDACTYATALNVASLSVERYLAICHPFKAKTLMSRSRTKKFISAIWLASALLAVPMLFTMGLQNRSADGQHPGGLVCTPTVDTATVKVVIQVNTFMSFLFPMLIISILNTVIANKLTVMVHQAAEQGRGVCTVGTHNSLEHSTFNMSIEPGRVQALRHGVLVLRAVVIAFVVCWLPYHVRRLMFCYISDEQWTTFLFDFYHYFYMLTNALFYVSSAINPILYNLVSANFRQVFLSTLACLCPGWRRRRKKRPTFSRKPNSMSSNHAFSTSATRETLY

binding result [1]: binds
binding result [2]: binds
binding result [3]: binds
B1: VHH H3 (VHH)
VHH: EVQLVESGGGEVQPGGSLKLSCVASGTDFSINFVRWYRQRPGKQREWVAGFTANGDTNYPDSMKGRFTISRDNAKNTVYLQINSLKSEDTAVYYCYMLDNWGQGTQVTVSS

binding result [7]: binds
B3: C5V30 (VHH)
VHH: EVQLVESGGGVVQPGGSLKLSCVASGTDKSINFIRWYRQAPGKQREFVAGFTATGNTNYADSMKGRFTISRDNTKNAVYLQIDSLKPEDTAVYYCYMLDKWGQGTQVTVSS

binding result [8]: binds
B4: C5neg-NT(8-13) (VHH)
VHH: EVQLVESGGGVVQPGGSLKLSCVASGTDFSINFIRWYRQAPGKQREFVAGFTATGNTNYADSMKGRFTISRDNTKNAVYLQIDSLKPEDTAVYYCAMADKWGQGTQVTVSS

binding result [8]: binds
B7: B8-NT(8-13) (VHH)
VHH: EVQLVESGGGVVQPGGSLRLSCAASGEIFSINFMRWYRQAPGKQREWVAGFTRDGSTNYPDSAKGRFTISRDNAKNTVYLQIDSLKPEDTAVYYCYMLDTWGQGTQVTVSS

binding result [9]: binds
binding result [7]: binds
B8: B8V40 (VHH)
chain: EVQLVESGGGVVQPGGSLRLSCAASGEIKSINFMRWYRQAPGKQREWVSGFTRDGSTNYPDSAKGRFTISRDNAKNTVYLQIDSLKPEDTAVYYCYMLDTWGQGTQVTVSS

binding result [9]: binds
binding result [7]: binds
B9: B8V31 (VHH)
chain: EVQLVESGGGVVQPGGSLRLSCAASGEIKSINFMRWYRQAPGKQREWVAGFTRDGSTNYPDSAKGRFTISRDNAKNTVYLQIDSLKPEDTAVYYCYMLDTWGQGTQVTVSS

binding result [7]: binds
B10: B8V37 (VHH)
VHH: EVQLVESGGGVVQPGGSLRLSCAASGEIFSINFMRWYRQAPGKQREWVAGFTRDGSTNYPDSAKGRFTISEDNAKNTVYLQIDSLKPEDTAVYYCYMLRTWGQGTQVTVSS

Second part, the binder before the results:

B2: VHH C5 (VHH)
chain: EVQLVESGGGVVQPGGSLKLSCVASGTDFSINFIRWYRQAPGKQREFVAGFTATGNTNYADSMKGRFTISRDNTKNAVYLQIDSLKPEDTAVYYCYMLDKWGQGTQVTVSS
Kd [4]: ~110 nM
Kd [5]: 3.1 nM
binding result [6]: binds

B5: C5-NT(8-13) (VHH)
VHH: EVQLVESGGGVVQPGGSLKLSCVASGTDFSINFIRWYRQAPGKQREFVAGFTATGNTNYADSMKGRFTISRDNTKNAVYLQIDSLKPEDTAVYYCYMLDKWGQGTQVTVSS
Kd [7]: 0.1 nM
koff [7]: 0.00016 s⁻¹
kon [7]: 1.36e+06 M⁻¹ s⁻¹

B6: VHH B8 (VHH)
chain: EVQLVESGGGVVQPGGSLRLSCAASGEIFSINFMRWYRQAPGKQREWVAGFTRDGSTNYPDSAKGRFTISRDNAKNTVYLQIDSLKPEDTAVYYCYMLDTWGQGTQVTVSS
Kd [4]: ~30 nM
Kd [5]: 2.4 nM
binding result [1]: binds

B11: B8V34-NT(8-13) (VHH)
VHH: EVQLVESGGGVVQPGGSLRLSCAASGEIRSINFMRWYRQAPGKQREWVAGFTRDGSTNYPDIAKGRFTISRDNAKNTVYLQIDSLKPEDTAVYYCYMLDTWGQGTQVTVSS
Kd [7]: 16.9 nM

B12: VHH B6 (VHH)
VHH: EVQLVESGGGLVQPGGSLRLSCTASGGPIEQYPMGWFRRAPGKERELVASISRSGDGTYYAISSVKGRFTISRDNAENTVFLQMNSLKPDDTAVYYCGAGINPTKIWGQGTQVTVSS
Kd [5]: 2.7 nM
binding result [10]: no binding (tested: 50 µg/ml)
binding result [11]: no binding (tested: 50 µg/ml)
